Key:
DEAD-box helicase 18 = molecular target: T1, DEAD-box helicase 18 (human, UniProt Q9NVP1 1-670); assay: protein array
T1 construct: on protein array; also called DDX18
T1 sequence: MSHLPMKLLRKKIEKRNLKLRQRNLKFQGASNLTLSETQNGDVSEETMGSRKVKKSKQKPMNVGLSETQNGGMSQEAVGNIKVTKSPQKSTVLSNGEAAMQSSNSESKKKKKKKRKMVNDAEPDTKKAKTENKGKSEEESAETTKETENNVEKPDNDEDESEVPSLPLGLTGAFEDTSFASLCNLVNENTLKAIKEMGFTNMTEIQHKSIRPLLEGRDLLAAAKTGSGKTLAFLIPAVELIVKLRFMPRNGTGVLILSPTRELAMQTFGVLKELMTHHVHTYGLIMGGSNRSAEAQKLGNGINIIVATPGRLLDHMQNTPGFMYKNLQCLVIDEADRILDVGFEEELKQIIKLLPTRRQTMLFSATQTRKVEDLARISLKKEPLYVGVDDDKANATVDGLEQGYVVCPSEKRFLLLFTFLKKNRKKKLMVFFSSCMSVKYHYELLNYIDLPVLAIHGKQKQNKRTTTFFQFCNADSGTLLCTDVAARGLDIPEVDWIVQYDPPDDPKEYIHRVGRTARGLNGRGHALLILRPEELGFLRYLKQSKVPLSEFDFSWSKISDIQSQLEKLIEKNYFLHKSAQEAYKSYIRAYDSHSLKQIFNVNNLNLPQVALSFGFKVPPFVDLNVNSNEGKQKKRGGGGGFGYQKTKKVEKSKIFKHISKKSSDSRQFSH

[1] = molecular target: T2, geminin DNA replication inhibitor, transcript variant 1 (human, UniProt O75496 1-209); assay: protein array
T2 construct: on protein array; also called GMNN
T2 sequence: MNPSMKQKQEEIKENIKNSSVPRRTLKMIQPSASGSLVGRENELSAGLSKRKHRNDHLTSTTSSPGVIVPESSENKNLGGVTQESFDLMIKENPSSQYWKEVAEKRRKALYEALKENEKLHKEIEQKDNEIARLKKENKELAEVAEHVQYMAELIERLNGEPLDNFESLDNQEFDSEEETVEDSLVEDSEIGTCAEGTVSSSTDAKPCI

[2] = molecular target: T3, syntaxin 1A, transcript variant 1 (human, UniProt Q16623 1-288); assay: protein array
T3 construct: on protein array; also called STX1A
T3 sequence (Q16623 whole entry, change not shown): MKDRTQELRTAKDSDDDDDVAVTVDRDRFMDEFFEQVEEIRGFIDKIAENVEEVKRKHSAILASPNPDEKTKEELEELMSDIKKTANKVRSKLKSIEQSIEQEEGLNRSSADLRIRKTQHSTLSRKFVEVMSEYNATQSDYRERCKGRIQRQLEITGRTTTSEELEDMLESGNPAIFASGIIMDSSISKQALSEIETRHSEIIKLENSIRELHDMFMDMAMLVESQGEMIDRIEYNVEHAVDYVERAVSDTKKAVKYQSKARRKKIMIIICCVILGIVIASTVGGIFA

[3] = molecular target: T4, S100 calcium binding protein B (human, UniProt P04271 2-92)
T4 construct: HuProt array protein, full-length recombinant from yeast; also called S100B
T4 sequence: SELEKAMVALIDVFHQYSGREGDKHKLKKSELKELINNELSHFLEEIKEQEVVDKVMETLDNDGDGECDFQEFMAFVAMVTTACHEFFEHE

[4] = molecular target: T5, CDP-diacylglycerol synthase 1 (human, UniProt Q92903 1-461)
T5 construct: HuProt array protein, full-length recombinant from yeast; also called CDS1
T5 sequence: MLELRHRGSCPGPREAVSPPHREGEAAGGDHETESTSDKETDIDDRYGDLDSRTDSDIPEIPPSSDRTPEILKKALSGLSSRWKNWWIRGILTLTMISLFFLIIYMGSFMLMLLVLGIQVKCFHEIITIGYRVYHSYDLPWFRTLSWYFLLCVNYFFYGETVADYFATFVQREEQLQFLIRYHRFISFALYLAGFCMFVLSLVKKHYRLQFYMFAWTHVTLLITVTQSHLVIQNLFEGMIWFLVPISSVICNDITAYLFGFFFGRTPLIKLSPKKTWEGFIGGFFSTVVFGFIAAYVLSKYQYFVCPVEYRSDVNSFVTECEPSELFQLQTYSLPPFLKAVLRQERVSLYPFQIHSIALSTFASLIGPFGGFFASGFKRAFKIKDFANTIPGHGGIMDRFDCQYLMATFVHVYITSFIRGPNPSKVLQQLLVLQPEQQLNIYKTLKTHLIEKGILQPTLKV

[5] = molecular target: T6, dynein axonemal assembly factor 3, transcript variant 3 (human, UniProt Q8N9W5 1-541)
T6 construct: HuProt array protein, full-length recombinant from yeast; also called DNAAF3
T6 sequence: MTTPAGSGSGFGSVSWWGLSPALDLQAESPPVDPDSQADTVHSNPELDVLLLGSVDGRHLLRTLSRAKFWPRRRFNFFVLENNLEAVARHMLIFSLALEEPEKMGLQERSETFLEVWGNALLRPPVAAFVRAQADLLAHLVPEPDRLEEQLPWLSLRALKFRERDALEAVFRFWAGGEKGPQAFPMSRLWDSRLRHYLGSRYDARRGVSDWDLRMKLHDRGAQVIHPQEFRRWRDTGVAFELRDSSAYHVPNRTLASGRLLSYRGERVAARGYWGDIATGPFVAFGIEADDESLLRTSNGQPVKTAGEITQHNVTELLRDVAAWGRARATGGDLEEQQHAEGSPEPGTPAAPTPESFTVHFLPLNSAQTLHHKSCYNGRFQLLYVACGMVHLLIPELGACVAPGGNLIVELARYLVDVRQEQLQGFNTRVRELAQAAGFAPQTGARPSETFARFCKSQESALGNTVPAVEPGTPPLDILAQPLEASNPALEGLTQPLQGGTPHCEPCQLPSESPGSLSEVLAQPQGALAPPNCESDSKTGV

[6] = molecular target: T7, aarF domain containing kinase 5 (human, UniProt Q3MIX3 1-580)
T7 construct: HuProt array protein, full-length recombinant from yeast; also called ADCK5
T7 sequence (Q3MIX3 other isoform, or with tags, fused parts or gaps limits assumed): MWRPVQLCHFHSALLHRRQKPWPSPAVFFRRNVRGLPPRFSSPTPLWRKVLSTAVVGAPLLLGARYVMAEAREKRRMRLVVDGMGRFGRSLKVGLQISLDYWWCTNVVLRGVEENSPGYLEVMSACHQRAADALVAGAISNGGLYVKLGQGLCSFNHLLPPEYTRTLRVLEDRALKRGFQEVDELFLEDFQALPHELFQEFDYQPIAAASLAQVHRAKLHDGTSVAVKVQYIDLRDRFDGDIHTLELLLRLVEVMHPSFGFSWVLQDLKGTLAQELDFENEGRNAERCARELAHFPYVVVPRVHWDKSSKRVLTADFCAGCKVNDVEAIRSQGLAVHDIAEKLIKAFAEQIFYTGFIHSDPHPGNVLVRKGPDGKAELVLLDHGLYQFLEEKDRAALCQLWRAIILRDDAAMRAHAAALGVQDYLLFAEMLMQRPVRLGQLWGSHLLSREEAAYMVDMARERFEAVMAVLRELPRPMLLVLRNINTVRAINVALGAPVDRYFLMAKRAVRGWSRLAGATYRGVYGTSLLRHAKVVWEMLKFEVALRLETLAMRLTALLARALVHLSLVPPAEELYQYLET

[7] = molecular target: T8, checkpoint kinase 2, transcript variant 3 (human)
T8 construct: HuProt array protein, full-length recombinant from yeast; also called CHEK2
T8 chain: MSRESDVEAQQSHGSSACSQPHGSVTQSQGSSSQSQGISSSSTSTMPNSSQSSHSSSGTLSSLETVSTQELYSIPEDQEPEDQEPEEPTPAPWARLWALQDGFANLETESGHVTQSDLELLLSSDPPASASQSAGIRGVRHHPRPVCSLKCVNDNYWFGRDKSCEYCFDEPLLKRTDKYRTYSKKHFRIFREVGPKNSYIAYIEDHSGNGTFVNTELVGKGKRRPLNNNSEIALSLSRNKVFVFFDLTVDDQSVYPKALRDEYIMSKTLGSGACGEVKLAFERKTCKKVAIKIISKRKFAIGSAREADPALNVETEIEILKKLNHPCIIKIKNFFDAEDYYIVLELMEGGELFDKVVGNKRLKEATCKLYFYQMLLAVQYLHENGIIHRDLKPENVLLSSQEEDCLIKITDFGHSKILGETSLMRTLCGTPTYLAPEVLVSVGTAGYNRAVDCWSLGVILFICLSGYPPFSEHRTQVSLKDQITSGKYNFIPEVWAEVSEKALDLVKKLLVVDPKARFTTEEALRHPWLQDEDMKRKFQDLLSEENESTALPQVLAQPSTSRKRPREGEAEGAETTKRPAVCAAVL

[8] = molecular target: aldo-keto reductase family 1 member B, transcript variant 1 (human, UniProt P15121 2-316)
[9] = molecular target: T9, proliferating cell nuclear antigen, transcript variant 1 (human, UniProt P12004 1-261)
T9 construct: HuProt array protein, full-length recombinant from yeast; also called PCNA
T9 sequence (P12004 whole entry, change not shown): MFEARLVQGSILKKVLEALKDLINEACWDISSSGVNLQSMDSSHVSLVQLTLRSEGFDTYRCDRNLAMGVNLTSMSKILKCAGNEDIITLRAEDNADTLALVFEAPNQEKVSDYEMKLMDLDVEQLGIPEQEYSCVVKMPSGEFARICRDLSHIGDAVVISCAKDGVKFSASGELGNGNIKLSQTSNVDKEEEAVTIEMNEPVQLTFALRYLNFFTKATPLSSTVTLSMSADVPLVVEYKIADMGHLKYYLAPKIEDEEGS

[10] = molecular target: T10, ankyrin repeat domain 53, transcript variant 2 (human)
T10 construct: HuProt array protein, full-length recombinant from yeast; also called ANKRD53
T10 chain: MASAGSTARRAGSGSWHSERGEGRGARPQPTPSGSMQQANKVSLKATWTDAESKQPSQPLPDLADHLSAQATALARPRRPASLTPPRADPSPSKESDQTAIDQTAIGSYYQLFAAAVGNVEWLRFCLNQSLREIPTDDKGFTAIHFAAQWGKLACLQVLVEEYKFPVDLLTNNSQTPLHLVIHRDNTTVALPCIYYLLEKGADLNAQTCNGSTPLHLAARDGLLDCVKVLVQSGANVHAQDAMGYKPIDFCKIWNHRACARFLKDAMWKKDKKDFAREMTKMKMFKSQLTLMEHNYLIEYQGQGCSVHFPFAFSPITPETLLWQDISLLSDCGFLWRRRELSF

B1: TBRE1027 (antibody, V domains shown)
VH: EVQLLESGGGLVQPGGSLRLSCAASGFTFSSYAMSWVRQAPGKGLEWVSTISGSGHSTYYADSVKGRFTISRDNSKNTLYLQMNSLRAEDTAVYYCAKSTLGGGFDFWGQGTLVTVSS
VL: DIQMTQSPFSLSASVGDRVTITCRASQSISSYLNWYQQKPGKAPKLLIYAASSLQSGVPSRFSGSGSGTDFTLTISSLQPEDFATYYCHQSYSTSLTFGGGTKVEIKR
notes: VH/VL only
- binding result (DEAD-box helicase 18): binds
- binding result [1]: binds
- binding result [2]: binds

B2: TKIC1012 (antibody, V domains shown)
VH: VVQLVESGGGLVQPGGSLRLSCAASGFSFSTYWMSWVRQAPGKGLEWVANIKQDGSEKHYVDSVKGRFTISRDNAKNSLYLQMNSLRAEDTAMYYCARRAYSFDYWGQGTLVTVSS
VL: DIQMTQSPSTLSASVGDKVTITCRASQSVGSWLAWYQQKPGKAPKLLISVASSLESGVPSRFSGSGSGTEFTLTVSSLQPDDFATYYCQQYNSYSWTFGQGTKVELKR
notes: detected with anti-human IgG Fc
- binding result [3]: binds

B3: THNS1014 (antibody, V domains shown)
VH: HVQLLQSGPGLVKPSQTLSLTCAISGDSVSSTSGAWNWIRQSPSRGLEWLGRTYYRSQWMNDYAESVRSRITINPDTSKNQFSLQLKSVTPEDTAVYYCTRGWAFTSSDWGQGTQVTVSS
VL: EIVLTQSPGTLSLSPGERATLSCRASQSFDGKSLAWYQQKPGQTPRLLVYGASSRATGIPDRFGGSGSGTDFTLTISRLESEDFAVYFCQQYAYVPITFGQGTRLERKR
notes: as for B2
- binding result [4]: binds
- binding result [5]: binds

B4: TKIC1002 (antibody, V domains shown)
VH: PVQLQESGPGLVKPSETLSLTCTVSGGSISSYYWSWIRQPPGKGLEWIGYLFYSGSTNYNPSLKSRVTISVDTSKNQFSLKLGSVTAADTAVYYCARHRIFGLDVWGQGTTVTVSS
VL: EIVLTQSPGTLSLSLGERATLSCRASQSVSGSHLAWYQQKPGQAPRLLIYDASSRATGIPDRFSGSGSGTEFTLTISRLEPEDFAVYYCQQYGSSPLWFGQGTKVEIK
notes: as for B2
- binding result [6]: binds

B5: TKIC1013 (antibody, V domains shown)
VH: EVQLVESGGGLVQPGGSLRLSCAASGFTFNNYWMHWVRQAPGKGLVWVSRISSDGSTTASADSVKGRFTISRDNAKNTLFLQMNSLRAEDTAVYYCAREGAPDDYGDSGTAFDIWGQGTTVTVSS
VL: DIQLTQSPSFLSASVGDRVTITCRASQDISSFLAWYQQKPGKAPDLLIYAASTLQSGVPSRFSGSGSGTEFTLTISSLQPEDFAAYYCQHLTSFPYTFGQGTKLEIKR
notes: as for B2
- binding result [7]: binds

B6: TKIC1006 (antibody, V domains shown)
VH: QVQLVQSGAEVKKPGSSVKVSCKTSGGTFSSYTISWVRQAPGQGPEWMGRIIPILNITNYAQKFQGRVTITADKSTSTTYMEMGSLRSEDTAVYFCARSFYGSGLQWGQGTLVTVSS
VL: EIVLTQSPGTLSLSPGERATLSCRASQSVSSSYLVWYQQKAGQAPRLLIYGASSRATGISDRFSGSGSGTDFTLTISRLEPEDFAVYYCQHFRSSPPTYTFGQGTKLEIKR
notes: as for B2
- binding result [8]: binds

B7: TKIC1007 (antibody, V domains shown)
VH: GVDLVESGGGLVKPGGSLRLSCAASGFSFSRYNINWVRQAPGKGLEWVSSISSTSNYIYYADSVKGRFTISRDNAKNSLYLQMNSLRAEDTAVYYCARAMGGYTYYLDDWGQGTLVTVSS
VL: QSALTQPASVSGSPGQSITISCTGTSSDVGLYNFVSWYQQHPGKAPKLMIFDVNNRPSGVSNRFSGSKSDNTASLTISGLQAEDEADYYCSSYSRTTTLVFGGGTKVTVLG
notes: as for B2
- binding result [9]: binds

B8: TKIC1019 (antibody, V domains shown)
VH: QLQLQESGPGLVKPSETLSLTCTVSDVSIISSFYYWGWIRQPPGKGLEWIGSVYYSGSTSYNPSLKSRVTISADTSKAHFSLNLRSVTAADTAVYYCVSRGPLGGAAAGPDYWGQGALVIVSS
VL: VSSELTQDPAVSVALGQTVRITCQGDSLRSYYATWYQQKPGQAPLLVIFDKDKRPSGIPDRFSGSSSGNTASLTITGAQPEDEAVYYCNSRDSSAHDHLLFGGGTTLTVLG
notes: as for B2
- binding result [10]: binds
